# Experimental data: the supplement of paper PMC9112550, “Optimization of the antimicrobial peptide Bac7 by deep mutational scanning” (BMC Biology, 2022)
# Test system: Escherichia coli TOP10
# Experiment: shrunken log2 fold change of peptide-encoding DNA abundance (4.5 h post-induction vs induction); higher = less antimicrobial activity (less host growth inhibition)
# Conditions: time post-induction: 4.5 h; library: site-saturation at positions 5, 18, 19, 20
# 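Also: peptides expressed intracellularly from a pBAD plasmid library in pooled LB shake-flask culture, induced with 0.3% L-arabinose, DNA abundance read by NGS, three biological replicates, DESeq2 with apeglm shrinkage.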
row,Sequence,shrunken log2 fold change
1,RRIRDRPPRLPRPRPRPWYTPRP,-0.0848
2,RRIRLRPPRLPRPRPRPLKVPRP,-0.0503
3,RRIRMRPPRLPRPRPRPGSLPRP,0.432
4,RRIRHRPPRLPRPRPRPAQVPRP,-0.0333
5,RRIRFRPPRLPRPRPRPNCFPRP,-0.193
6,RRIRNRPPRLPRPRPRPFPMPRP,-0.0139
7,RRIRERPPRLPRPRPRPPIRPRP,-0.0192
8,RRIRNRPPRLPRPRPRPRFHPRP,0.0377
9,RRIRRRPPRLPRPRPRPADGPRP,0.344
10,RRIRCRPPRLPRPRPRPEEPPRP,0.847
11,RRIRFRPPRLPRPRPRPCNLPRP,-0.264
12,RRIRRRPPRLPRPRPRPEFAPRP,0.129
13,RRIRARPPRLPRPRPRPNVAPRP,0.477
14,RRIRLRPPRLPRPRPRPANSPRP,-0.202
15,RRIRDRPPRLPRPRPRPDIYPRP,0.0286
16,RRIRRRPPRLPRPRPRPVDNPRP,0.0838
17,RRIRHRPPRLPRPRPRPWAMPRP,-0.00884
18,RRIRRRPPRLPRPRPRPCGRPRP,-0.0337
19,RRIRVRPPRLPRPRPRPEAMPRP,-0.0277
20,RRIRRRPPRLPRPRPRPNAQPRP,0.287
21,RRIRSRPPRLPRPRPRPIQGPRP,-0.127
22,RRIRIRPPRLPRPRPRPRKEPRP,0.00489
23,RRIRFRPPRLPRPRPRPFCQPRP,-0.317
24,RRIRSRPPRLPRPRPRPETVPRP,0.211
25,RRIRLRPPRLPRPRPRPHEWPRP,-0.0141

row,Sequence,shrunken log2 fold change
1,RRIRFRPPRLPRPRPRPLNFPRP,-0.452
2,RRIRSRPPRLPRPRPRPHLFPRP,-0.32
3,RRIRFRPPRLPRPRPRPQSYPRP,-0.111
4,RRIRGRPPRLPRPRPRPEGWPRP,1.99
5,RRIRQRPPRLPRPRPRPKSPPRP,-0.089
6,RRIRRRPPRLPRPRPRPKCIPRP,-0.019
7,RRIRIRPPRLPRPRPRPGEQPRP,-0.0156
8,RRIRCRPPRLPRPRPRPSNHPRP,-0.718
9,RRIRIRPPRLPRPRPRPWCVPRP,-0.698
10,RRIRSRPPRLPRPRPRPVRFPRP,0.488
11,RRIRSRPPRLPRPRPRPIRQPRP,-0.0752
12,RRIRQRPPRLPRPRPRPHDQPRP,0.00277
13,RRIRIRPPRLPRPRPRPRAHPRP,-0.201
14,RRIRKRPPRLPRPRPRPYDFPRP,0.176
15,RRIRERPPRLPRPRPRPRDPPRP,0.0576
16,RRIRDRPPRLPRPRPRPPSHPRP,-0.203
17,RRIRERPPRLPRPRPRPIDTPRP,-0.113
18,RRIRWRPPRLPRPRPRPDMRPRP,0.499
19,RRIRVRPPRLPRPRPRPNRKPRP,-0.0231
20,RRIRQRPPRLPRPRPRPCWPPRP,0.193
21,RRIRVRPPRLPRPRPRPWHAPRP,-0.109
22,RRIRARPPRLPRPRPRPVESPRP,0.986
23,RRIRHRPPRLPRPRPRPLQGPRP,0.00978
24,RRIRNRPPRLPRPRPRPYKFPRP,-0.286
25,RRIRQRPPRLPRPRPRPSMHPRP,-0.0647

row,Sequence,shrunken log2 fold change
1,RRIRVRPPRLPRPRPRPIMKPRP,-0.473
2,RRIRWRPPRLPRPRPRPCDSPRP,-0.00192
3,RRIRQRPPRLPRPRPRPVGQPRP,0.0327
4,RRIRDRPPRLPRPRPRPIRGPRP,-0.0417
5,RRIRVRPPRLPRPRPRPSHGPRP,-0.143
6,RRIRVRPPRLPRPRPRPVHNPRP,-0.404
7,RRIRGRPPRLPRPRPRPPQNPRP,1.01
8,RRIRWRPPRLPRPRPRPGLSPRP,-0.0318
9,RRIRARPPRLPRPRPRPTIMPRP,0.15
10,RRIRPRPPRLPRPRPRPPFPPRP,0.454
11,RRIRERPPRLPRPRPRPYHDPRP,-0.114
12,RRIRHRPPRLPRPRPRPGDIPRP,-0.412
13,RRIRHRPPRLPRPRPRPGNAPRP,0.137
14,RRIRTRPPRLPRPRPRPACNPRP,0.0894
15,RRIRCRPPRLPRPRPRPENCPRP,0.0153
16,RRIRIRPPRLPRPRPRPLGNPRP,-0.19
17,RRIRQRPPRLPRPRPRPIEYPRP,-0.0135
18,RRIRDRPPRLPRPRPRPHTYPRP,-0.163
19,RRIRGRPPRLPRPRPRPMTTPRP,1.16
20,RRIRTRPPRLPRPRPRPQVDPRP,-0.0209
21,RRIRWRPPRLPRPRPRPNHRPRP,-0.0538
22,RRIRTRPPRLPRPRPRPPIWPRP,0.477
23,RRIRPRPPRLPRPRPRPKQKPRP,0.123
24,RRIRQRPPRLPRPRPRPWHVPRP,-0.0656
25,RRIRRRPPRLPRPRPRPLTHPRP,0.275

row,Sequence,shrunken log2 fold change
1,RRIRTRPPRLPRPRPRPWMAPRP,-0.295
2,RRIRIRPPRLPRPRPRPQAHPRP,-0.261
3,RRIRKRPPRLPRPRPRPKGCPRP,0.0534
4,RRIRFRPPRLPRPRPRPLKDPRP,-0.276
5,RRIRFRPPRLPRPRPRPEYMPRP,-0.421
6,RRIRNRPPRLPRPRPRPAAWPRP,0.0193
7,RRIRTRPPRLPRPRPRPSNTPRP,-0.732
8,RRIRTRPPRLPRPRPRPMEMPRP,-0.236
9,RRIRMRPPRLPRPRPRPTPQPRP,1.31
10,RRIRIRPPRLPRPRPRPLYSPRP,-0.674
11,RRIRERPPRLPRPRPRPPVVPRP,-0.0806
12,RRIRVRPPRLPRPRPRPAWDPRP,0.258
13,RRIRLRPPRLPRPRPRPLAWPRP,0.32
14,RRIRLRPPRLPRPRPRPTFHPRP,0.258
15,RRIRPRPPRLPRPRPRPHHWPRP,-0.103
16,RRIRWRPPRLPRPRPRPDRHPRP,-0.157
17,RRIRSRPPRLPRPRPRPTMSPRP,-0.0133
18,RRIRTRPPRLPRPRPRPDQNPRP,0.0691
19,RRIRERPPRLPRPRPRPFTSPRP,-0.209
20,RRIRNRPPRLPRPRPRPKQPPRP,0.00591
21,RRIRGRPPRLPRPRPRPPWFPRP,0.772
22,RRIRSRPPRLPRPRPRPMSWPRP,0.0314
23,RRIRVRPPRLPRPRPRPSCMPRP,-0.136
24,RRIRVRPPRLPRPRPRPCDCPRP,0.00675
25,RRIRTRPPRLPRPRPRPTFIPRP,-0.39

row,Sequence,shrunken log2 fold change
1,RRIRIRPPRLPRPRPRPNYSPRP,-0.937
2,RRIRPRPPRLPRPRPRPDTRPRP,0.0199
3,RRIRHRPPRLPRPRPRPCSYPRP,-0.0203
4,RRIRDRPPRLPRPRPRPLVNPRP,0.426
5,RRIRMRPPRLPRPRPRPMKPPRP,-0.00107
6,RRIRTRPPRLPRPRPRPIRYPRP,-0.0148
7,RRIRDRPPRLPRPRPRPSPGPRP,0.241
8,RRIRDRPPRLPRPRPRPGAPPRP,0.598
9,RRIRLRPPRLPRPRPRPCNIPRP,-0.00101
10,RRIRCRPPRLPRPRPRPYSMPRP,-0.905
11,RRIRIRPPRLPRPRPRPDAIPRP,0.0309
12,RRIRWRPPRLPRPRPRPNRMPRP,0.126
13,RRIRERPPRLPRPRPRPDPNPRP,0.0422
14,RRIRKRPPRLPRPRPRPQMMPRP,-0.0245
15,RRIRTRPPRLPRPRPRPHSWPRP,-0.0571
16,RRIRNRPPRLPRPRPRPNPDPRP,-0.322
17,RRIRYRPPRLPRPRPRPTCTPRP,-0.229
18,RRIRMRPPRLPRPRPRPPQDPRP,1.24
19,RRIRLRPPRLPRPRPRPDMLPRP,-0.125
20,RRIRARPPRLPRPRPRPPREPRP,1.01
21,RRIRRRPPRLPRPRPRPHSAPRP,0.0905
22,RRIRNRPPRLPRPRPRPPQYPRP,-0.0544
23,RRIRFRPPRLPRPRPRPWGSPRP,-0.0689
24,RRIRGRPPRLPRPRPRPYKMPRP,-0.234
25,RRIRWRPPRLPRPRPRPYVHPRP,-1.18

row,Sequence,shrunken log2 fold change
1,RRIRGRPPRLPRPRPRPFLTPRP,0.0427
2,RRIRQRPPRLPRPRPRPRFAPRP,0.141
3,RRIRSRPPRLPRPRPRPQPEPRP,-0.279
4,RRIRPRPPRLPRPRPRPLFWPRP,0.296
5,RRIRWRPPRLPRPRPRPARAPRP,0.563
6,RRIRWRPPRLPRPRPRPNFEPRP,0.00226
7,RRIRNRPPRLPRPRPRPMPVPRP,-0.139
8,RRIRSRPPRLPRPRPRPMHPPRP,-0.0546
9,RRIRYRPPRLPRPRPRPAARPRP,0.0304
10,RRIRYRPPRLPRPRPRPAHPPRP,-0.0595
11,RRIRMRPPRLPRPRPRPAGAPRP,1.28
12,RRIRHRPPRLPRPRPRPKNVPRP,-0.0354
13,RRIRWRPPRLPRPRPRPKQAPRP,0.413
14,RRIRKRPPRLPRPRPRPAPFPRP,0.659
15,RRIRGRPPRLPRPRPRPYVNPRP,0.0862
16,RRIRERPPRLPRPRPRPFNFPRP,-0.298
17,RRIRYRPPRLPRPRPRPYSHPRP,-0.958
18,RRIRYRPPRLPRPRPRPEKLPRP,-0.034
19,RRIRPRPPRLPRPRPRPQHWPRP,0.265
20,RRIRSRPPRLPRPRPRPKERPRP,0.265
21,RRIRDRPPRLPRPRPRPCPMPRP,-0.292
22,RRIRPRPPRLPRPRPRPMTIPRP,-0.421
23,RRIRIRPPRLPRPRPRPHMYPRP,-0.485
24,RRIRMRPPRLPRPRPRPRWLPRP,0.459
25,RRIRARPPRLPRPRPRPHWRPRP,0.319
